Assay [1] has as its target T1, L1 (DV1-GV4), soluble human Vδ1/Vγ4 γδ TCR heterodimer in leucine zipper format (human).
T1 construct: Biotinylated in the DELFIA ranking; also called Antigen L1 (TRDV1/TRGV4); human DV1-GV4; not shown: gamma chain: Vγ4 (TRGV4) domain on a TCR constant region, leucine zipper, histidine tag
In words: DELFIA, 100 nM biotinylated L1.

Assay [2] concerns the target T2, Vδ1 chain of the γδ TCR on human Vδ1 γδ T cells (human).
T2 construct: whole, on cells; also called cell surface Vδ1 TCR; Vδ1-positive γδ T cells
In words: flow cytometry binding to Vδ1 γδ T cells, donor ATS006; column head printed 'IC50', unit nM from the chart axis and FIG. 34D.
Protocol: (§1) All incubation steps were performed at 4° C. and mAb binding was determined using flow cytometry to measure the median level of fluorescence. Logarithmic four parameter dose-response curves were fitted using GraphPad Prism 9. […] For Vδ1-positive γδ T cell, data is represented as the mean two donors.
(§2) A range of target cells were assayed to determine the specificity and affinity of Vδ1 mAb binding. This included expanded skin-derived Vδ1 γδ T-cells, HEK293T cells, Raji cells, and multiple leukocyte subsets within human primary blood mononuclear cells. Adherent or semi-adherent cells (skin-derived Vδ1 γδ T-cells, HEK293T) were detached from tissue culture flask and resuspended in PBS. Similarly, non-adherent cell types (Raji, PBMC), were harvested and resuspended in PBS. Cells were seeded at a final density of 100,000 cells per well in v-bottom 96-well plates. Cells underwent centrifugation and the cell pellets were resuspended in FcR blocking reagent according to the manufacturer's instructions, and incubated for 20 minutes at 4C prior to a further wash. […] To determine the quantity of mAb bound to the cell surface, the cells were then stained with a murine anti-human IgG secondary antibody, conjugated to APC (dilution: 1:100). For Vδ1 γδ T-cells, HEK293T and Raji, the cells were also stained solely with a viability dye.

The target in assay [3] is T2, Vδ1 chain of the γδ TCR on human Vδ1 γδ …. In words: flow cytometry binding to Vδ1 γδ T cells, donor TS164; column head printed 'IC50', unit nM from the chart axis and FIG. 34D. In general terms: A flow cytometer gives signals particle by particle.
Protocol: as §1, §2
Assay [4] has the same target. In words: cell-based or functional assay.
For assay [5], the target named is T1, L1 (DV1-GV4), soluble human Vδ1/Vγ4 γδ …. In words: SPR (Reichert 4SPR), antibody on Protein A chip, human Vδ1 antigen as analyte; average of two replicates on two instruments.
Description: The binding affinity of the antibodies to target (i.e. the Vδ1 chain of a γδ TCR) is established by SPR analysis using a Reichert 4SPR instrument (Reichert Technologies).
The binding interaction of Vδ1 and the affinity-matured mAbs were modelled according to Langmuir 1:1 binding.
The target is the same in assay [6]. Nature of the assay: DELFIA ELISA, human antigen; heat map cell of the clone. In general terms: ELISA stands for enzyme-linked immunosorbent assay.

T2 sequence (A0A1B0GX56 22-115, stated change not applied): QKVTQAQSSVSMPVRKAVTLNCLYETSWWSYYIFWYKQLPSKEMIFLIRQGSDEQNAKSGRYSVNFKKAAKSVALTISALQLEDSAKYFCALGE
T1 sequence (main, as listed by the source): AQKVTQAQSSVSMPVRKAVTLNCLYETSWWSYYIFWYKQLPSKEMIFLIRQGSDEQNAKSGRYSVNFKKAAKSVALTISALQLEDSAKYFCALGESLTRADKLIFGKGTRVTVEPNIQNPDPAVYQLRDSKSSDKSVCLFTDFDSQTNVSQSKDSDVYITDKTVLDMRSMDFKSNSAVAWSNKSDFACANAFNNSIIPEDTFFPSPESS

B1: 1139_P01_E04 (antibody, IgG1, V domains shown)
VH: QVQLQQSGPGLVKPSQTLSLTCAISGDSVSSNSAAWNWIRQSPSRGLEWLGRTYYRSKWYNDYAVSVRSRITINPDTSKNQFSLQLNSVTPEDTAVYYCARSWNDAFDIWGQGTTVTVSS
VL: DIVMTQSPSTLSASIGDRVTITCRAGQSISTWLAWYQQKPGKAPKLLIYDASSLESGVPLRFSGSGSGTDFTLTISSLQPEDFATYYCQQSYSTPLTFGGGTKVEIK
notes: IgG1
Consider B1, for which, in assay [1], the “DELFIA signal at 100 nM L1” value was 23800 fluorescence units.

B2: 1245_P02_F07 (antibody, IgG1, V domains shown)
VH: QVQLQQSGPGLVKPSQTLSLTCVISGDSVSSNSAAWNWIRQSPSRGLEWLGRTYYRSKWYNDYAVSVKSRITINPDTSKNQFSLQLNSVTPEDTAVYYCARDYYYSMDVWGQGTMVTVSS
VL: DIQMTQSPSTLSASVGDRVTITCRASQSISSWLAWYQQKPGKAPKLLIYDASSLESGVPLRFSGSGSGTEFTLTISSLQPDDFATYYCQQSHSHPPTFGPGTKVDIK
notes: IgG1
Consider B2, for which the “DELFIA signal at 100 nM L1” value in assay [1] is 10400 fluorescence units.

B3: 1245_P01_G09 (antibody, IgG1, V domains shown)
VH: QVQLQQSGPGLVKPSQTLSLTCAISGDSVSSNSAAWNWIRQSPSRGLEWLGRTYYGSKWYNEYALSVKSRIIINPDTSKNQFSLQLNSVTPEDTAVYYCARDYYYSMDVWGQGTLVTVSS
VL: DIVMTQSPSTLSASIGDRVTITCRAGQSISTWLAWYQQKPGKAPKLLIYDASSLESGVPLRFSGSGSGTEFTLAISSLQPDDFATYYCQQSYSTPVTFGQGTKVEIK
notes: IgG1
As for B3, in assay [1], the “DELFIA signal at 100 nM L1” value stood at 18400 fluorescence units.

B4: 1141_P01_E01 (antibody, IgG1, V domains shown)
VH: QVQLVQSGAEVKKPGESLKISCKGSGYSFTSYWIGWVRQMPGKGLEWMGIIYPGDSDTRYSPSFQGQVTISADKSISTAYLQWSSLKASDTAMYYCARHQVDTRTADYWGQGTLVTVSS
VL: SQSALTQPASVSGSPGQSVTISCTGTRSDVGGYNYVSWYQHHPGKAPKLMIYEVSNRPSGVSNRFSGSKSGNTASLTISGLQAEDEADYYCSSYTSTSTLVFGGGTKLTVL
notes: IgG1, lambda light chain
For the molecule B4, the “DELFIA signal at 100 nM L1” value in assay [1] was 137000 fluorescence units.

B5: 1245_P01_E07 (antibody, IgG1, V domains shown)
VH: QVQLVESGGGLVKPGGSLRLSCAASGFTFSDYYMSWIRQAPGKGLEWVSYISSSGSTIYYADSVKGRFTISRDNAKNSLYLQMNSLRAEDTAVYYCARVDYADAFDIWGQGTLVTVSS
VL: DIQMTQSPSSLSASVGDRVTIACRAGQSIGTYLNWYQQKPGKAPKLLIYVASSLQSGVPSRFSGSGSGTEFTLTISSLQPEDFATYYCQQSYSTLLTFGRGTKVEIK
notes: also called ADT1-7; parental ADT1-7
B5: the EC50 in assay [2] was over 100 nM; in assay [3], 226 nM. Moreover, the “IC50 TCR DR (no THP-1)” value in assay [4] is 22.4 nM. In addition, the “IC90 TCR DR (noTHP-1)” value in assay [4] stood at 139 nM. Also, the “DELFIA signal at 100 nM L1” value in assay [1] turned out to be 163000 fluorescence units. In assay [5], this molecule gave a Kd of 38.1 nM. The “ELISA signal (heat map)” value in assay [6] is 5470.

B6: ADT1-7-23 (antibody, IgG1, V domains shown)
VH: EVQLVESGGGLVKPGGSLRLSCAASGFTFSDYYMSWIRQAPGKGLEWVSYISSSGSTIYYADSVKGRFTISRDNAKNSLYLQMNSLRAEDTAVYYCARVDYNEAFDIWGQGTLVTVSS
VL: DIQMTQSPSSLSASVGDRVTIACRAGQSIGTYLNWYQQKPGKAPKLLIYVASSLQSGVPSRFSGSGSGTEFTLTISSLQPEDFATYYCQQSYSGLDTFGRGTKVEIK
notes: IgG1
B6: the “ELISA signal (heat map)” value in assay [6] is 34400.

B7: ADT1-7-10 (antibody, IgG1, V domains shown)
VH: EVQLVESGGGLVKPGGSLRLSCAASGFTFSDYYMSWIRQAPGKGLEWVSYISSSGSTIYYADSVKGRFTISRDNAKNSLYLQMNSLRAEDTAVYYCARDDYNDAFDIWGQGTLVTVSS
VL: DIQMTQSPSSLSASVGDRVTIACRAGQSIGTYLNWYQQKPGKAPKLLIYVASSLQSGVPSRFSGSGSGTEFTLTISSLQPEDFATYYCQQTASTLLTFGRGTKVEIK
notes: IgG1
Consider B7, for which the “ELISA signal (heat map)” value in assay [6] amounted to 30900.

B8: 1245_P01_G06 (antibody, V domains shown)
VH: QVQLVESGGGLVKPGGSLRLSCAASGFTFSDYYMSWIRQAPGKGLEWVSYISSSGSTIYYADSVKGRFTISRDNAKNSLYLQMNSLRAEDTAVYYCARHSWNDAFDVWGQGTLVTVSS
VL: not shown
notes: IgG1
As to B8, in assay [1], the “DELFIA signal at 100 nM L1” value came out at 22500 fluorescence units.

B9: ADT1-7-22 (antibody, IgG1, V domains shown)
VH: EVQLVESGGGLVKPGGSLRLSCAASGFTFSDYYMSWIRQAPGKGLEWVSYISSSGSTIYYADSVKGRFTISRDNAKNSLYLQMNSLRAEDTAVYYCARDDYNDAFDIWGQGTLVTVSS
VL: DIQMTQSPSSLSASVGDRVTIACRAGQSIGTYLNWYQQKPGKAPKLLIYVASSLQSGVPSRFSGSGSGTEFTLTISSLQPEDFATYYCQQSASELLTFGRGTKVEIK
notes: IgG1
Regarding B9, the “ELISA signal (heat map)” value in assay [6] amounted to 27800.

B10: ADT1-7-15 (antibody, IgG1, V domains shown)
VH: EVQLVESGGGLVKPGGSLRLSCAASGFTFSDYYMSWIRQAPGKGLEWVSYISSSGSTIYYADSVKGRFTISRDNAKNSLYLQMNSLRAEDTAVYYCARDDYNDAFDIWGQGTLVTVSS
VL: DIQMTQSPSSLSASVGDRVTIACRAGQSIGTYLNWYQQKPGKAPKLLIYVASSLQSGVPSRFSGSGSGTEFTLTISSLQPEDFATYYCQQSADTLLTFGRGTKVEIK
notes: IgG1
Turning to B10, in assay [6], the “ELISA signal (heat map)” value was found to be 30400.

B11: ADT1-7-42 (antibody, IgG1, V domains shown)
VH: EVQLVESGGGLVKPGGSLRLSCAASGFTFSDYYMSWIRQAPGKGLEWVSYISSSGSTIYYADSVKGRFTISRDNAKNSLYLQMNSLRAEDTAVYYCARDDYEDAFDIWGQGTLVTVSS
VL: DIQMTQSPSSLSASVGDRVTIACRAGQSIGTYLNWYQQKPGKAPKLLIYVASSLQSGVPSRFSGSGSGTEFTLTISSLQPEDFATYYCQQSSSELLTFGRGTKVEIK
notes: IgG1
With B11, in assay [6], the “ELISA signal (heat map)” value worked out at 37600.

B12: ADT1-7-19 (antibody, IgG1, V domains shown)
VH: EVQLVESGGGLVKPGGSLRLSCAASGFTFSDYYMSWIRQAPGKGLEWVSYISSSGSTIYYADSVKGRFTISRDNAKNSLYLQMNSLRAEDTAVYYCARIDYEDAFDIWGQGTLVTVSS
VL: DIQMTQSPSSLSASVGDRVTIACRAGQSIGTYLNWYQQKPGKAPKLLIYVASSLQSGVPSRFSGSGSGTEFTLTISSLQPEDFATYYCQQSASELLTFGRGTKVEIK
notes: IgG1
As for B12, in assay [6], the “ELISA signal (heat map)” value came to 34700.

B13: ADT1-7-18 (antibody, IgG1, V domains shown)
VH: EVQLVESGGGLVKPGGSLRLSCAASGFTFSDYYMSWIRQAPGKGLEWVSYISSSGSTIYYADSVKGRFTISRDNAKNSLYLQMNSLRAEDTAVYYCARVSYDDAFDIWGQGTLVTVSS
VL: DIQMTQSPSSLSASVGDRVTIACRVGQSIGTYLNWYQQKPGKAPKLLIYVASSLQSGVPSRFSGSGSGTEFTLTISSLQPEDFATYYCQQSASELLTFGRGTKVEIK
notes: IgG1
B13: the “ELISA signal (heat map)” value in assay [6] came out at 34800.

B14: ADT1-7-20 (antibody, IgG1, V domains shown)
VH: EVQLVESGGGLVKPGGSLRLSCAASGFTFSDYYMSWIRQAPGKGLEWVSYISSSGSTIYYADSVKGRFTISRDNAKNSLYLQMNSLRAEDTAVYYCARVDYQEAFDIWGQGTLVTVSS
VL: DIQMTQSPSSLSASVGDRVTIACRAGQSIGTYLNWYQQKPGKAPKLLIYVASSLQSGVPSRFSGSGSGTEFTLTISSLQPEDFATYYCQQSYSGLDTFGRGTKVEIK
notes: IgG1
As to B14, the concentration for a half-maximal effect (EC50) in assay [2] stood at 37.2 nM; in assay [3] it was 2.68 nM. Moreover, in assay [4], the “IC50 TCR DR (no THP-1)” value was 0.164 nM. In assay [4], the “IC90 TCR DR (noTHP-1)” value was 1.04 nM. This molecule also returned a Kd in assay [5] of 4.99 nM. Besides, the “ELISA signal (heat map)” value in assay [6] is 30800.

B15: ADT1-7-17 (antibody, IgG1, V domains shown)
VH: EVQLVESGGGLVKPGGSLRLSCAASGFTFSDYYMSWIRQAPGKGLEWVSYISSSGSTIYYADSVKGRFTISRDNAKNSLYLQMNSLRAEDTAVYYCARIDYEDAFDIWGQGTLVTVSS
VL: DIQMTQSPSSLSASVGDRVTIACRAGQSIGTYLNWYQQKPGKAPKLLIYVASSLQSGVPSRFSGSGSGTEFTLTISSLQPEDFATYYCQQSGSELLTFGRGTKVEIK
notes: IgG1
Take B15: the “ELISA signal (heat map)” value in assay [6] was 30200.

B16: 1138_P01_B09 (antibody, IgG1, V domains shown)
VH: EVQLLESGGGLVKPGGSLRLSCAASGFTFSDYYMSWIRQAPGKGLEWVSYISSSGSTIYYADSVKGRFTISRDNAKNSLYLQMNSLRAEDTAVYYCARHSWSDAFDIWGQGTLVTVSS
VL: DIQMTQSPSSLSASVGDRVTITCQASQDISNYLNWYQQKPGKAPKLLIYDASNLETGVPSRFSGSGSGTDFTLTISSLQPEDFATYYCQQSYSTPLTFGGGTKVEIK
notes: IgG1
B16: in assay [1], the “DELFIA signal at 100 nM L1” value was 29200 fluorescence units.

B17: 1252_P01_C08 (antibody, IgG1, V domains shown)
VH: EVQLLESGGGLVQPGRSLRLSCAASGFTVSSNYMSWVRQAPGKGLEWVSVIYSGGSTYYADSVKGRFTISRDNSKNTLYLQMNSLRAEDTAVYYCASPIELGAFDIWGQGTLVTVSS
VL: SSYELTQPPSVSVAPGKTARITCGGNNIGSQSVHWYQQKPGQAPMLVIYYDSDRPSGIPERFSGSNSGNTATLTISRVEAGDEADYYCQVWDSSSDHVVFGGGTKLTVL
notes: IgG1, lambda light chain
With B17, the “DELFIA signal at 100 nM L1” value in assay [1] was 1980 fluorescence units.

B18: 1251_P02_C05 (antibody, IgG1, V domains shown)
VH: EVQLLESGGGLVQPGGSLRLSCAASGFTFSSYAMSWVRQAPGKGLEWVSAISGGGGTTYSSDSVKGRFTISRDNSKNTLYLQMNSLRAEDTAVYYCARDSGVAFDIWGQGTLVTVSS
VL: DIQMTQSPSFLSASVGDRVTITCRASQNIRTWLAWYQQKPGRAPKLLIYDASSLESGVPSRFSGSGSGTDFTLTISSLQPEDFATYYCQQFKRYPPTFGLGTKVEIK
notes: IgG1
As to B18, the “DELFIA signal at 100 nM L1” value in assay [1] was found to be 65300 fluorescence units.

What is called EC50 is the concentration at which the effect is half-maximal. Lower therefore signals an effect from little substance. As a reminder, the Kd is the concentration at which binding is half-saturated. A higher Kd goes with a looser complex.
